The values that follow come from PMC8634136 (The EMBO Journal, 2021).

Holding throughout (details): both partners purified
In test [1] the target is T1, human CDC45‐MCM‐GINS (CMG) helicase (human, UniProt P49736 1-904; P25205 1-808; P33991 1-863; P33992 1-734; Q14566 1-821; P33993 …).
T1 construct: MCM2, human; MCM3, human; the construct lacks the 45 additional N-terminal amino acids of the longer isoform used in PDB 6XTX; MCM4, human; MCM5, human; MCM6, human; MCM7, human; CDC45, human; PSF1 (GINS subunit), human; PSF2 (GINS subunit), human; PSF3 (GINS subunit), human; SLD5 (GINS subunit), human; also called hsCMG; source: Hi5 insect cells co-infected with baculoviruses for MCM2-7, GINS …
The test is described as follows: co-sedimentation; native glycerol gradient without cross-linker (40 mM HEPES-NaOH pH 7.5, 150 mM NaOAc, 0.5 mM TCEP, 500 µM AMP-PNP, 3 mM Mg(OAc)2), 200,000 g, 4°C, 2 h; 100 nM CMG pre-incubated with fork DNA, 1.5-fold molar excess of the other proteins; fractions on silver-stained SDS-PAGE.

For the next test, the target named is T2, AND‐1 (human, UniProt O75717 1-1129).
T2 construct: AND-1, human; Only the trimer of SepB domains is ordered in the map; source: Hi5 insect cells (baculovirus), purified (Flag M2, MonoQ, Superdex 200)
T2 sequence: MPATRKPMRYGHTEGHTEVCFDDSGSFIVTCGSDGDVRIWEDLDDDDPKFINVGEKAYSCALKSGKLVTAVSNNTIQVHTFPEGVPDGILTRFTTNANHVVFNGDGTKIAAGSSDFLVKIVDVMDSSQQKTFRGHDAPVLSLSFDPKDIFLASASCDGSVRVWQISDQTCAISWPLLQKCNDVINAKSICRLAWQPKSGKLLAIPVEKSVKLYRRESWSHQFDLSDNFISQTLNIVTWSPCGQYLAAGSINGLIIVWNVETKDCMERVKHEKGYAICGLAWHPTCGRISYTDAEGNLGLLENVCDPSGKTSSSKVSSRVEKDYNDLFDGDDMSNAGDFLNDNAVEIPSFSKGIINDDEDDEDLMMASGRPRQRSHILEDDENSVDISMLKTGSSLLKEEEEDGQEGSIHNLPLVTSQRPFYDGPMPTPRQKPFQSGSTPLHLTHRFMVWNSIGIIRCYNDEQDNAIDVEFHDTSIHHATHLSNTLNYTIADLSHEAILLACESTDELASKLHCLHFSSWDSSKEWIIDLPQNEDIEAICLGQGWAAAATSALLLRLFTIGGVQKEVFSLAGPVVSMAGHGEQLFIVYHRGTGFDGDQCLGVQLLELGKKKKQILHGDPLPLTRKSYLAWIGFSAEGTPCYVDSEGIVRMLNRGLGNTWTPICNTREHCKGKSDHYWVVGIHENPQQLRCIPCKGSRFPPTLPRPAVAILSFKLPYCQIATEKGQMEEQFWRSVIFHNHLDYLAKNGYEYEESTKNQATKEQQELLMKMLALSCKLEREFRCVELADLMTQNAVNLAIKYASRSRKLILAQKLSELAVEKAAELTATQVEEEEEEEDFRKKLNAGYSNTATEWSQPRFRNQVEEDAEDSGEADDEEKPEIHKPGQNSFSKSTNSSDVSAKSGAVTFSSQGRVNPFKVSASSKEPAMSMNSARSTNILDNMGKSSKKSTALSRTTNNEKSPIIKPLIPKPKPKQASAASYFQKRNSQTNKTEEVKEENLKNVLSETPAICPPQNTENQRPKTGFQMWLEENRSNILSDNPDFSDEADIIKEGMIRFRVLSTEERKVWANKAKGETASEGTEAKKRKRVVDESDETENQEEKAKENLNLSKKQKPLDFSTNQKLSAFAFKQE
The test can be described thus: cryo-EM structure; replisome reconstituted on fork DNA with AMP-PNP, isolated on a glycerol gradient with glutaraldehyde and BS3; 3.2 Å overall; a sample without CLASPIN solved at 3.4 Å.

The next test concerns the target T3, POLE1 (human, UniProt Q07864 1-2286).
T3 construct: POLE1, catalytic subunit of Pol ε, human; Stood in the structure as a subunit of m2; residues 1,371-2,280 modelled; also called POLE1 catalytic subunit; POLE1^nonCat (the modelled C-terminal non-catalytic domain); source: Hi5 insect cells, purified as a subunit of Pol ε
The description is as above.

A further test addresses T4, CLASPIN (human, UniProt Q9HAW4-1 1-1339).
T4 construct: human CLASPIN; residues 284-319, 525-540 and 592-618 modelled
The test is described as follows: cryo-EM structure; independent replisome preparation that also contained CLASPIN; map EMD-13494 (to be published in a separate study), model PDB 7PFO docked into the density.

T3 sequence (Q07864 whole entry, the tested form may be a part): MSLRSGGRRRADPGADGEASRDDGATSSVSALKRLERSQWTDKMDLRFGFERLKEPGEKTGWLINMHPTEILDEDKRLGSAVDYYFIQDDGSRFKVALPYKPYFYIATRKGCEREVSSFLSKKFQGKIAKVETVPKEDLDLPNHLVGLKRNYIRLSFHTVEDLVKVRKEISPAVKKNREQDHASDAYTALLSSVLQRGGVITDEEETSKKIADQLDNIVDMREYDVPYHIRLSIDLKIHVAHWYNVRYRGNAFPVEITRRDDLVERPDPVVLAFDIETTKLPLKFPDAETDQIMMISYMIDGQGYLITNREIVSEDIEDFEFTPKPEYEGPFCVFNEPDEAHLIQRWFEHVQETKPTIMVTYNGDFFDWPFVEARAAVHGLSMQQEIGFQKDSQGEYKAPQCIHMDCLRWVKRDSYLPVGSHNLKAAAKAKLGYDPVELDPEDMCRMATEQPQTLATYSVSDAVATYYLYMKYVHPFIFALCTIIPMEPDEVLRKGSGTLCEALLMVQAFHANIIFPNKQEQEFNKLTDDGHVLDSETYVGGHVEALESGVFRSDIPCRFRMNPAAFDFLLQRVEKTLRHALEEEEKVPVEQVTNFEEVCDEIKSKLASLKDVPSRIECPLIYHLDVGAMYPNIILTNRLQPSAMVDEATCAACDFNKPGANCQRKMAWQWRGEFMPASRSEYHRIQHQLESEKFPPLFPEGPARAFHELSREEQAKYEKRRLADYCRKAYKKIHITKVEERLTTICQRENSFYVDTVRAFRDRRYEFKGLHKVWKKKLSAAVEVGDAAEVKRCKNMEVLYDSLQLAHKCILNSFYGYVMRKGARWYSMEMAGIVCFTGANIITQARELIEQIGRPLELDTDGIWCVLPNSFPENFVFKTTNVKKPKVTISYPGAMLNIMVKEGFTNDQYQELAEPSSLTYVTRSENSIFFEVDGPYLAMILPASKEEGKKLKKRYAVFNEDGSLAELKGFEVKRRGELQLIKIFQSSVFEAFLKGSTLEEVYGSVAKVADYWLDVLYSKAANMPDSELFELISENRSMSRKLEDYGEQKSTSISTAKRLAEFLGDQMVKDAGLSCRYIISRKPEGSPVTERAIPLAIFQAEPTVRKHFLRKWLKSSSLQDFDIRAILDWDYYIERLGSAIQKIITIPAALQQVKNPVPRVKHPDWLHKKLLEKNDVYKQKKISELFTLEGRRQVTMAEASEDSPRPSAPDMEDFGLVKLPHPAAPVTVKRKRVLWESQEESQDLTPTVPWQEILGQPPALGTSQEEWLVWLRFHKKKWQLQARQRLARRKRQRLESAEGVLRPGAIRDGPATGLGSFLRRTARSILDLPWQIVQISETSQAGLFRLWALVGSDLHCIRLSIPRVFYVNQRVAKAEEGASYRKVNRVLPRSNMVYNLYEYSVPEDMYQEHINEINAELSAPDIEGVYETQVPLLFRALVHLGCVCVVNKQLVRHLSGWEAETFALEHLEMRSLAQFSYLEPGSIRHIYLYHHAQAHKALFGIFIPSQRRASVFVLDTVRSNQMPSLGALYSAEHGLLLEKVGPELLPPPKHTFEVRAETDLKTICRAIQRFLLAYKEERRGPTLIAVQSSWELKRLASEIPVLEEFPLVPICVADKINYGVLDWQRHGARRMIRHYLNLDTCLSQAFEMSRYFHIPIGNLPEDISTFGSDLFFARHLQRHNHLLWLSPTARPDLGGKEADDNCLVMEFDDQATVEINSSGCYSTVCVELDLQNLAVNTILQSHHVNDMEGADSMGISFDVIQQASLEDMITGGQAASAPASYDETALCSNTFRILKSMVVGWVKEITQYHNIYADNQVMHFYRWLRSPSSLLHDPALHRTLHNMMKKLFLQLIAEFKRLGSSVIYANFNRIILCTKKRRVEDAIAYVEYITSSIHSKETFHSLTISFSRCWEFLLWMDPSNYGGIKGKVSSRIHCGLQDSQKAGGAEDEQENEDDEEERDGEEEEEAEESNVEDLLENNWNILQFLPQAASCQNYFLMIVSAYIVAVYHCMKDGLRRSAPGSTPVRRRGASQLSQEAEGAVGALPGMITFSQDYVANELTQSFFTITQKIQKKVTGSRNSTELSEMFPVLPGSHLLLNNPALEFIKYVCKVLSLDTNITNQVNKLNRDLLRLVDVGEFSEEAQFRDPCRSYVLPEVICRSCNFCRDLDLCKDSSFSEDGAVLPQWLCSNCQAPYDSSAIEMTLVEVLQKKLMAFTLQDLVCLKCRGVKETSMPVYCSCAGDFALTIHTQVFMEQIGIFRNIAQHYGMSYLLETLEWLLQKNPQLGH
T4 sequence (Q9HAW4 whole entry, the tested form may be a part): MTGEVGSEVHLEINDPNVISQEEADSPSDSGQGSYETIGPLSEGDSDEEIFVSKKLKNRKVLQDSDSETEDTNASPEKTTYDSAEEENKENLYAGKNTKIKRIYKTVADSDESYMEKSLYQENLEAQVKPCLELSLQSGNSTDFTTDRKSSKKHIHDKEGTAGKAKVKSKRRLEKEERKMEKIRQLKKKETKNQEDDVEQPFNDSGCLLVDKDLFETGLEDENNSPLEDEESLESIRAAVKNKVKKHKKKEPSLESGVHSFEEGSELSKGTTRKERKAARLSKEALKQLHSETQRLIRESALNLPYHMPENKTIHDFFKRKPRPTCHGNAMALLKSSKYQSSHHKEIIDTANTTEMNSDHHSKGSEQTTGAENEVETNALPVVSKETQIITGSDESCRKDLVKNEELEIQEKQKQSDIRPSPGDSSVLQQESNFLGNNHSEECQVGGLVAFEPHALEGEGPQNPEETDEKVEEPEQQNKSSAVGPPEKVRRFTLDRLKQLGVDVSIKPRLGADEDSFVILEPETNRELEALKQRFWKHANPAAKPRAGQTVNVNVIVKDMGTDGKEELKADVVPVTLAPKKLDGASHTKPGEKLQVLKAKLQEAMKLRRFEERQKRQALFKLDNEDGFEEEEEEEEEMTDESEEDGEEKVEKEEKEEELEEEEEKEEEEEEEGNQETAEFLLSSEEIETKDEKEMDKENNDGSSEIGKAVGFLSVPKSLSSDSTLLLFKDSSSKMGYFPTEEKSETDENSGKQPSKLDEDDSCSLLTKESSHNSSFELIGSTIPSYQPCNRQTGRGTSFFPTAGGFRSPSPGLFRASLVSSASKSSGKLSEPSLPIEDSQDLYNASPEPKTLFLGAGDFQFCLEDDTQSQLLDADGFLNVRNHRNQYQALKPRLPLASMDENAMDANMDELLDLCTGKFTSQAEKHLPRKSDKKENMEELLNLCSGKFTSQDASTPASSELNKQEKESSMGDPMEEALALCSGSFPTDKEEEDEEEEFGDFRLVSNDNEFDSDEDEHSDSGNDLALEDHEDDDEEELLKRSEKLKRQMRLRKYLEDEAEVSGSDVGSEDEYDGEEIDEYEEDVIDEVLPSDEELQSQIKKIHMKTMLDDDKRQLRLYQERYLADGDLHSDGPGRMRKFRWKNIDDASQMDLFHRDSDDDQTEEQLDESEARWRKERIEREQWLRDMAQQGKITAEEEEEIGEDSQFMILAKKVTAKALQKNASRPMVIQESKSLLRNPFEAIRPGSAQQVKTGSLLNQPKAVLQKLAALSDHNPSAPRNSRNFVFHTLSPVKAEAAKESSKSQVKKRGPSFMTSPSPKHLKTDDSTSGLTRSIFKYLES

B1: TIMELESS‐TIPIN heterodimer (complex, human)
chain 1: MDLHMMNCELLATCSALGYLEGDTYHKEPDCLESVKDLIRYLRHEDETRDVRQQLGAAQILQSDLLPILTQHHQDKPLFDAVIRLMVNLTQPALLCFGNLPKEPSFRHHFLQVLTYLQAYKEAFASEKAFGVLSETLYELLQLGWEERQEEDNLLIERILLLVRNILHVPADLDQEKKIDDDASAHDQLLWAIHLSGLDDLLLFLASSSAEEQWSLHVLEIVSLMFRDQNPEQLAGVGQGRLAQERSADFAELEVLRQREMAEKKTRALQRGNRHSRFGGSYIVQGLKSIGERDLIFHKGLHNLRNYSSDLGKQPKKVPKRRQAARELSIQRRSALNVRLFLRDFCSEFLENCYNRLMGSVKDHLLREKAQQHDETYYMWALAFFMAFNRAASFRPGLVSETLSVRTFHFIEQNLTNYYEMMLTDRKEAASWARRMHLALKAYQELLATVNEMDISPDEAVRESSRIIKNNIFYVMEYRELFLALFRKFDERCQPRSFLRDLVETTHLFLKMLERFCRSRGNLVVQNKQKKRRKKKKKVLDQAIVSGNVPSSPEEVEAVWPALAEQLQCCAQNSELSMDSVVPFDAASEVPVEEQRAEAMVRIQDCLLAGQAPQALTLLRSAREVWPEGDVFGSQDISPEEEIQLLKQILSAPLPRQQGPEERGAEEEEEEEEEEEEELQVVQVSEKEFNFLDYLKRFACSTVVRAYVLLLRSYQQNSAHTNHCIVKMLHRLAHDLKMEALLFQLSVFCLFNRLLSDPAAGAYKELVTFAKYILGKFFALAAVNQKAFVELLFWKNTAVVREMTEGYGSLDDRSSSRRAPTWSPEEEAHLRELYLANKDVEGQDVVEAILAHLNTVPRTRKQIIHHLVQMGLADSVKDFQRKGTHIVLWTGDQELELQRLFEEFRDSDDVLGHIMKNITAKRSRARIVDKLLALGLVAERRELYKKRQKKLASSILPNGAESLKDFCQEDLEEEENLPEEDSEEEEEGGSEAEQVQGSLVLSNENLGQSLHQEGFSIPLLWLQNCLIRAADDREEDGCSQAVPLVPLTEENEEAMENEQFQQLLRKLGVRPPASGQETFWRIPAKLSPTQLRRAAASLSQPEEEQKLQPELQPKVPGEQGSDEEHCKEHRAQALRALLLAHKKKAGLASPEEEDAVGKEPLKAAPKKRQLLDSDEEQEEDEGRNRAPELGAPGIQKKKRYQIEDDEDD
chain 2: MLEPQENGVIDLPDYEHVEDETFPPFPPPASPERQDGEGTEPDEESGNGAPVRVPPKRTVKRNIPKLDAQRLISERGLPALRHVFDKAKFKGKGHEAEDLKMLIRHMEHWAHRLFPKLQFEDFIDRVEYLGSKKEVQTCLKRIRLDLPILHEDFVSNNDEVAENNEHDVTSTELDPFLTNLSESEMFASELSRSLTEEQQQRIERNKQLALERRQAKLLSNSQTLGNDMLMNTPRAHTVEEVNTDEDQKEESNGLNEDILDNPCNDAIANTLNEEETLLDQSFKNVQQQLDATSRNITEAR
notes: TIPIN, human; no cleavage is described in the purification; source: Hi5 insect cells (baculovirus), purified (Strep-Tactin XT, HiTrap Q, Superdex 200)
For the molecule B1, the binding result in test [1] is listed as “binds”.

B2: CDC45 (natural protein, human, UniProt O75419 1-566, looked up)
chain: MFVSDFRKEFYEVVQSQRVLLFVASDVDALCACKILQALFQCDHVQYTLVPVSGWQELETAFLEHKEQFHYFILINCGANVDLLDILQPDEDTIFFVCDTHRPVNVVNVYNDTQIKLLIKQDDDLEVPAYEDIFRDEEEDEEHSGNDSDGSEPSEKRTRLEEEIVEQTMRRRQRREWEARRRDILFDYEQYEYHGTSSAMVMFELAWMLSKDLNDMLWWAIVGLTDQWVQDKITQMKYVTDVGVLQRHVSRHNHRNEDEENTLSVDCTRISFEYDLRLVLYQHWSLHDSLCNTSYTAARFKLWSVHGQKRLQEFLADMGLPLKQVKQKFQAMDISLKENLREMIEESANKFGMKDMRVQTFSIHFGFKHKFLASDVVFATMSLMESPEKDGSGTDHFIQALDSLSRSNLDKLYHGLELAKKQLRATQQTIASCLCTNLVISQGPFLYCSLMEGTPDVMLFSRPASLSLLSKHLLKSFVCSTKNRRCKLLPLVMAAPLSMEHGTVTVVGIPPETDSSDRKNFFGRAFEKAAESTSSRMLHNHFDLSVIELKAEDRSKFLDALISLLS
notes: CDC45, human; Stood in the structure as a subunit of m1; source: Hi5 insect cells, purified as a subunit of hsCMG
For the molecule B2, the binding result with AND‐1 and with POLE1 was “binds” in each case.

B3: MCM5 (natural protein, human)
chain: MSGFDDPGIFYSDSFGGDAQADEGQARKSQLQRRFKEFLRQYRVGTDRTGFTFKYRDELKRHYNLGEYWIEVEMEDLASFDEDLADYLYKQPAEHLQLLEEAAKEVADEVTRPRPSGEEVLQDIQVMLKSDASPSSIRSLKSDMMSHLVKIPGIIIAASAVRAKATRISIQCRSCRNTLTNIAMRPGLEGYALPRKCNTDQAGRPKCPLDPYFIMPDKCKCVDFQTLKLQELPDAVPHGEMPRHMQLYCDRYLCDKVVPGNRVTIMGIYSIKKFGLTTSRGRDRVGVGIRSSYIRVLGIQVDTDGSGRSFAGAVSPQEEEEFRRLAALPNVYEVISKSIAPSIFGGTDMKKAIACLLFGGSRKRLPDGLTRRGDINLLMLGDPGTAKSQLLKFVEKCSPIGVYTSGKGSSAAGLTASVMRDPSSRNFIMEGGAMVLADGGVVCIDEFDKMREDDRVAIHEAMEQQTISIAKAGITTTLNSRCSVLAAANSVFGRWDETKGEDNIDFMPTILSRFDMIFIVKDEHNEERDVMLAKHVITLHVSALTQTQAVEGEIDLAKLKKFIAYCRVKCGPRLSAEAAEKLKNRYIIMRSGARQHERDSDRRSSIPITVRQLEAIVRIAEALSKMKLQPFATEADVEEALRLFQVSTLDAALSGTLSGVEGFTSQEDQEMLSRIEKQLKRRFAIGSQVSEHSIIKDFTKQKYPEHAIHKVLQLMLRRGEIQHRMQRKVLYRLK
notes: MCM5, human; Stood in the structure as a subunit of m1; source: Hi5 insect cells, purified as a subunit of hsCMG
On to B3, for which the binding result with POLE1 was “binds”.

B4: MCM6 (natural protein, human)
chain: MDLAAAAEPGAGSQHLEVRDEVAEKCQKLFLDFLEEFQSSDGEIKYLQLAEELIRPERNTLVVSFVDLEQFNQQLSTTIQEEFYRVYPYLCRALKTFVKDRKEIPLAKDFYVAFQDLPTRHKIRELTSSRIGLLTRISGQVVRTHPVHPELVSGTFLCLDCQTVIRDVEQQFKYTQPNICRNPVCANRRRFLLDTNKSRFVDFQKVRIQETQAELPRGSIPRSLEVILRAEAVESAQAGDKCDFTGTLIVVPDVSKLSTPGARAETNSRVSGVDGYETEGIRGLRALGVRDLSYRLVFLACCVAPTNPRFGGKELRDEEQTAESIKNQMTVKEWEKVFEMSQDKNLYHNLCTSLFPTIHGNDEVKRGVLLMLFGGVPKTTGEGTSLRGDINVCIVGDPSTAKSQFLKHVEEFSPRAVYTSGKASSAAGLTAAVVRDEESHEFVIEAGALMLADNGVCCIDEFDKMDVRDQVAIHEAMEQQTISITKAGVKATLNARTSILAAANPISGHYDRSKSLKQNINLSAPIMSRFDLFFILVDECNEVTDYAIARRIVDLHSRIEESIDRVYSLDDIRRYLLFARQFKPKISKESEDFIVEQYKHLRQRDGSGVTKSSWRITVRQLESMIRLSEAMARMHCCDEVQPKHVKEAFRLLNKSIIRVETPDVNLDQEEEIQMEVDEGAGGINGHADSPAPVNGINGYNEDINQESAPKASLRLGFSEYCRISNLIVLHLRKVEEEEDESALKRSELVNWYLKEIESEIDSEEELINKKRIIEKVIHRLTHYDHVLIELTQAGLKGSTEGSESYEEDPYLVVNPNYLLED
notes: human MCM6, subunit of hsCMG; Subunit of the CMG helicase in the replisome structure; source: Hi5 insect cells co-infected with baculoviruses for MCM2-7, GINS and CDC45; purified as hsCMG (Flag M2, Strep-Tactin XT, MonoQ)
Consider B4, for which the binding result with CLASPIN is reported as “binds”.

B5: PSF2 (natural protein, human)
chain: MDAAEVEFLAEKELVTIIPNFSLDKIYLIGGDLGPFNPGLPVEVPLWLAINLKQRQKCRLLPPEWMDVEKLEKMRDHERKEETFTPMPSPYYMELTKLLLNHASDNIPKADEIRTLVKDMWDTRIAKLRVSADSFVRQQEAHAKLDNLTLMEINTSGTFLTQALNHMYKLRTNLQPLESTQSQDF
notes: PSF2 (GINS subunit), human; Stood in the structure as a subunit of m1; also called PSF2 subunit of GINS; source: Hi5 insect cells, purified as a subunit of hsCMG
Take B5: in the test with AND‐1, the binding result is recorded as “binds”.
